Laboratory results taken from the DeepSol protein solubility set.

test: soluble on expression in E. coli; label from the status in PepcDB or PDB records

Soluble on expression in E. coli, not soluble:
MSEPASVPRGAAPGSRGTASPRAVVIGAGLAGMLAAAALHRHAEVTVVDRDVLPAEPAPRKGLPQARHAHLLWSGGARAMEDLLPGVTAAWLAAGARRIPLPTGLVSLSAQGWLRRWPEMEFMISCTRDLLDSVIREQVAKKEGVTLLAGTELLGLEGGALRVTGVRVRTPEGEERVLEADLVVDASGRGSRSVAWLDALGVPQAPMDEVDSGLAYASRIFRAPAGTEDFPVVNVQPDPAQPVPAQSATIVPVEGGRWLVTLSGTHGGQPTASAEEFEAFARGVRDPVVGELIAHAEPLTNVVLTRSTINRRRFFEKVKDWPEGFVAIGDAVATYNPVYGHGMSVAAQGAVALREHVAEHGLAAPGLARRAQRAVALPVKIAWELATGTDIRYPEAIGKQPGGTQKLLGRYVERLMRTATGRPLVAQAFLGVITLSRPLSTLVKPEVLFAVLRGPRRSPLAGPPLTPEERKAVLTAKEPSGTQAAGLEHHHHHH
MSEPLDLNQLAQKIKQWGLELGFQQVGITDTDLSESEPKLQAWLDKQYHGEMDWMARHGMLRARPHELLPGTLRVISVRMNYLPANAAFASTLKNPKLGYVSRYALGRDYHKLLRNRLKKLGEMIQQHCVSLNFRPFVDSAPILERPLAEKAGLGWTGKHSLILNREAGSFFFLGELLVDIPLPVDQPVEEGCGKCVACMTICPTGAIVEPYTVDARRCISYLTIELEGALPEELRPLMGNRIYGCDDCQLICPWNRYSQLTTEDDFSPRKPLHAPELIELFAWSEEKFLKVTEGSAIRRIGHLRWLRNIAVALGNAPWDETILTALESRKGEHPLLDEHIAWAIAQQIERRNACIVEVQLPKKQRLVRVIEKGLPRDA
MSESYTLIKELKRQLKSAGLHYVDVAQHLNLSEGSVKRLLAEGQHISLERLERICQLIGLEMAELFKLAAAHNKGLESLTLEQEKQLVDDKALLLVAICVVNGYQFEQIVQQYTFNELELVQKLAHLDRLNIIDLQPNNKIRLRISPTFKWQMGGPIQRFFQQQVQDAFFQSYFSGEDEQLSMATGLMSVPTNKKLQQKLQKVIDEFYQACQSDSSLDMDEKHGTSLIIAMRRWTFPLFEPWERKPTQKSQN
MSETGTRISPLFSHRRWKLQVLDLQDVCENFWMVWSEAMARGCFLNAKRNKKPVQDCPRMRGRQPLTVFVELWLKNRTLDEHLTCLLLWVKQRKDLLHLCCKKLKILGMPFRNIRSILKMVNLDCIQEVEVNCKWVLPILTQFTPYLGHMRNLQKLVLSHMDVSRYVSPEQKKEIVTQFTTQFLKLHCLQKLYMNSVSFLEGHLDQLLSCLKTSLKVLTITNCVLLESDLKHLSQCPSISQLKTLDLSGIRLTNYSLVPLQILLEKVAATLEYLDLDDCGIIDSQVNAILPALSRCFELNTFSFCGNPISMATLENLLSHTIILKNLCLELYPAPRESYGADGTLCWSRFTQIRAELMKRVRDLRHPKRILFGTDYCPDCGNRSFYDLEADQYCC
MSETTQGPTHFRLMSKLKAIGPYLREPQSQEGRYYFDCLSVCVDDKKSPEKREFWGWWMDLESIEGGFTAKYHIGKYNKEGKWVSEALPQKVVEEVYFTQSTFHQKLIDTLAEHFKLEVEYHTESFDFA
MSFALLMASGGLDSTTVAYWLTERGVQFIPVFFDYGQHCVETEWETLKEVLPASAAHPERNDISDLFRGSKSRLITEADLWNEEVKDEDLYVPYRTLLFYSAAAARAQTLGAFEVYTGFINSNRAKEIDCTAEFMNKLDALTDSVGPVRFLSPFRFWSKSEVAKESIRLGVPIGRTFSCQAASLMPCGACPNCVERLAALRETGLLA
MSFDLSWYGVPVEEEAKEEEAIVYGIPNNPELEQIIPAKFHSFVNEVIGDYNTLSDEEFWKKYNLREIWFDVKEYEEDNKAKNMLGTIIVFLLVEKEYILQLDYKEDLVDYIEDIDNYWGKEEVKLISFEVDNDQQYYAYVPKTAAIDSLYEVKLTEVEKIEEV
MSFGYLIATSQPCELLTKSRGETFSLIMDKMDLWIYFRFCEGNIYTIRKNETESCLTERGGEWLKHIYEFNRGSFIFSYVLLKKRESEENFTEIVLKSIKNNKILTVKVRSGLHFDLRNIYRIEM
MSFMPAIVGPIAINSISGGVVNFGDSFYLSPKSSSKSALGSGAGNTGDFLLLNNAVNATNYIDPDVNDQDMVGNGLEHHHHHH
MSFNDLYKASIYTMLGSIYAPSGGVIAAPTTSLPEVEGGKRNWDYRFAWVRDSSIIAEALLEAGSIVEARRIINFLLSLINFSSKPFYYPLYTIEGTIPPPERELRWLSGYKNSKPVRIGNGASSQIQLDIEGFFISALYKYVKMTNDQVFLKDVFSKVKYIGDWISENWSLKDSGIWEDRGSPQHYTHSKIMMWIALDKIGKLANLIGYADIWAKEREKLRNWIFTNCVKNNYFIRYCGNTDDVDSSLLSAPLYGFIEVSDSTFINTLTKIENDLKTDVFVKRYKTDFMGEAKHPFLLTTVWLARVYMRLGKIDSAIEILNKINKVSRELHLVGEHVDVEKGEFTGNFPQIFVHAQLVIAIKELNDTLTDKNIILEHHHHHH
MSFQVSVAVNDGPFQKKSVTPNTTIGDLNNDAILIWKDTAIVYDISDESKNFGPTVTLEQLGVTQISMVYIYTTAFPCPSGDLRSIVPAQVRLISQFASAASSIFNGQSSSSAQSAQRTRRVEQDDEGEKSMFSRKLLDSPATFKALSENMFFRLKNEPHKLGYGLPELVERFLAKKDMTYKEFEQMFRSYVEEEVHKEEIIKNNPNSAEAKMFLEAKRNKELIDEQYLHSMTHHPEDMIAVTMLYINLTINGVPVKAFIDSGAQKSIMSMACAERCGLNGLIDRRFQSMARGVGGTEKIEGKIHLCDVKVEDAHFSCPFEVMARREMDLLIGLNVLRKHGCCINLKTSRLEFGNGTTTPFLQSNEIDSHLKEIMALPEEEMQFEDGST
MSFYYSNIVSNQEKTFYDAQFSMSSLKQVSPISGSPQRDDSFNISPASSSPDMLVETWKSDEENAKSESPSSQSTTATSTNDDLFASVGTWEVHANENNITVNKKKKRSRKIRRLRDVQDSDEERPKPVIALVPLVPNPFCVSDSLLSKLGPVATKRRRVCFNPTISFHYYCVDK
MSGAEQQQIVPANNGDENWKAGLNLPAKDRRFKTADVTDTKGVEFEDFCLGRDLLMGIFEKGWEKPSPIQEASIGVALTGQDILARAKNGTGKTGAYCIPVIEKIQPALKAIQAMVIVPTRELALQTSQICVELSKHIQLKVMVTTGGTDLRDDIMRLNGTVHLVIATPGRILDLMEKGVAKMEHCKTLVLDEADKLLSQDFQGILDRLINFLPKERQVMLYSATFPNTVTSFMQKHMHKPYEINLMEELTLLGVTQYYAFVQEKQKVHCLNTLFRKLQINQSIIFCNSTQRVELLAKKITEIGYSCYYIHSKMAQNHRNRVFHDFRQGNCRNLVCSDLLTRGIDIQAVNVVINFDFPRNAETYLHRIGRSGRFGHLGVAINLITYEDRHTLRRIEQELRTRIEPIPKTVDPKLYVADQQLVDAADETTA
MSGAPPPPPPYNQAYNAYPQPPQGVYTVQPGVPIGQGVQPAYAVYYQQPQTVIVDDCHHHHHHREREHGGGGGEMCCLAGLMACLCFLCLSK
MSGFRKDELIPVIIDIHGEKRKMFEDIADTVLRRVLDEEENECPPIESRGSSTSSFSTTPSSSASPLSINQLLSSSFSQPPAPQLPVPLAFNPFQLALYQSLVANNTLAFPVFGGPPSIFPLLVPPPQPQPTVESIELLKILQNMLAKQKK
MSGISIIENAVLKPTKREVAEQWLGYFEHIGSYRFVDPDGQVGIESLIGFDLDRRLVQMPVTYRSAEFDAEHTLTTMDHSVLGTRYVSNAMGDPVAVREYIRVILEADNGAQRSDGKVSVLDVRGSGNREEKLTLGEVRILEATRQRAVGYVRIDGTLRGFVLRVPHLLVPENSPRLGHNISPMRLNGSVVMSPKTVLIAAELSWHDI
MSGNRGGSYISGIVPSFKERRPFHERQKDVEEIRSQQPNKVPVIIERFDGERSLPLMDRCKFLVPEHITVAELMSIVRRRLQLHPQQAFFLLVNERSMVSNSMSMSNLYSQERDPDGFVYMVYTSQPAFG

Soluble on expression in E. coli, soluble:
MSELKDIIAAVTPCKGADFELQALKIRQPQGDEVLVKVVATGMCHTDLIVRDQKYPVPLPAVLGHEGSGIIEAIGPNVTELQVGDHVVLSYGYCGKCTQCNTGNPAYCSEFFGRNFSGADSEGNHALCTHDQGVVNDHFFAQSSFATYALSRENNTVKVTKDVPIELLGPLGCGIQTGAGACINALKVTPASSFVTWGAGAVGLSALLAAKVCGASIIIAVDIVESRLELAKQLGATHVINSKTQDPVAAIKEITDGGVNFALESTGSPEILKQGVDALGILGKIAVVGAPQLGTTAQFDVNDLLLGGKTILGVVEGSGSPKKFIPELVRLYQQGKFPFDQLVKFYAFDEINQAAIDSRKGITLKPIIKIA
MSELNKEMTLLPPPELVQYVGGDFKKVGKEFLKHFIQIGALKSNEKVLDVGCGVGRMAVPLMNYLNDDGAYYGFDLFKDGITWCQNNISTMRNNFHFEHVDIYNQFYNPEGKEDASQYRFPYEDGTFDFIFLTSVFTHLLPKELEHYVSEIVRVLKKDGRCFITFFLINPESSYYLNAGQSTLGFYHRIENCYVVNKDIPNFAVAYPETDICNLLNKYGLEIINKPHYGLWCGRHEYTSYQDIVLTKKSFLEHHHHHH
MSENPLLERARRFLSALRHCQVLGLTVEAADEKGLTLRLPYSQAIIGNPESGVVHGGAITTLMDTTCGISTVCVLPDFEICPTLDLRIDYMHPAEPHKDVYGFAECYRVTPNVIFTRGFAYQDDPGQPIAHVVGAFMRMGLEHHHHHH
MSEPEEQQPDIHTTAGKLADLRRRIEEATHAGSARAVEKQHAKGKLTARERIDLLLDEGSFVELDEFARHRSTNFGLDANRPYGDGVVTGYGTVDGRPVAVFSQDFTVFGGALGEVYGQKIVKVMDFALKTGCPVVGINDSGGARIQEGVASLGAYGEIFRRNTHASGVIPQISLVVGPCAGGAVYSPAITDFTVMVDQTSHMFITGPDVIKTVTGEDVGFEELGGARTHNSTSGVAHHMAGDEKDAVEYVKQLLSYLPSNNLSEPPAFPEEADLAVTDEDAELDTIVPDSANQPYDMHSVIEHVLDDAEFFETQPLFAPNILTGFGRVEGRPVGIVANQPMQFAGCLDITASEKAARFVRTCDAFNVPVLTFVDVPGFLPGVDQEHDGIIRRGAKLIFAYAEATVPLITVITRKAFGGAYLVMGSKHLGADLNLAWPTAQIAVMGAQGAVNILHRRTIADAGDDAEATRARLIQEYEDALLNPYTAAERGYVDAVIMPSDTRRHIVRGLRQLRTKRESLPPKKHGNIPL
MSEQAPAPKRGRRFKEQTPVQRALGLLVHREHSKKELNRKLQARGIEPEAAQAAVERLAGEGWQDDVRFAASVVRNRASSGYGPLHIRAELGTHGLDSDAVSAAMATFEGDWTENALDLIRRRFGEDGPVDLAQRRKAADLLARRGFDGNSIRLATRFDLED
MSESSRIREKYPDRIPVIVEKAGQSDVPDIDKKKYLVPADLTVGQFVYVVRKRIKLGAEKAIFVFVKNTLPPTAALMSAIYEEHKDEDGFLYMTYSGENTFGSLTVA
MSEVESQQSQETNGSSKFDVPEIELIIKASTIDGRRKGACLFCQEYFMDLYLLAELKTISLKVTTVDMQKPPPDFRTNFEATHPPILIDNGLAILENEKIERHIMKNIPGGYNLFVQDKEVATLIENLYVKLKLMLVKKDEAKNNALLSHLRKINDHLSARNTRFLTGDTMCCFDCELMPRLQHIRVAGKYFVDFEIPTHLTALWRYMYHMYQLDAFTQSCPADQDIINHYKLQQSLKMKKHEELETPTFTTYIPIDISE
